{"source": "paper PMC2817915", "origin": "cited, not measured here", "settings_in_all_cases": "native HEWL; ligand state not stated", "key": {"Asp66": {"biological_target": "Asp66 (UniProt position 84, RWWCNDGRTPG)"}, "Glu7": {"biological_target": "Glu7 (UniProt position 25, VFGRCELAAAM)"}, "Asp48": {"biological_target": "Asp48 (UniProt position 66, TNRNTDGSTDY)"}, "His15": {"biological_target": "His15 (UniProt position 33, AAMKRHGLDNY)"}, "Asp87": {"biological_target": "Asp87 (UniProt position 105, ALLSSDITASV)"}, "Asp52": {"biological_target": "Asp52 (UniProt position 70, TDGSTDYGILQ)"}, "Glu35": {"biological_target": "Glu35 (UniProt position 53, CAAKFESNFNT)"}, "Asp18": {"biological_target": "Asp18 (UniProt position 36, KRHGLDNYRGY)"}, "Asp119": {"biological_target": "Asp119 (UniProt position 137, RCKGTDVQAWI)"}, "Asp101": {"biological_target": "Asp101 (UniProt position 119, KKIVSDGNGMN)"}}, "note": "Several values for one entry are separate records, joined by “and”; a condition that tells them apart may be missing. Equal values may be shown once."}
{"substance": "Hen egg-white lysozyme (HEWL, lysozyme C) (Gallus gallus)", "values": [{"measurement": "pKa", "setting": "Asp66", "value": 2.00}, {"measurement": "pKa", "setting": "Glu7", "value": 2.85}, {"measurement": "pKa", "setting": "Asp48", "value": 2.50}, {"measurement": "pKa", "setting": "His15", "value": 5.71}, {"measurement": "pKa", "setting": "Asp87", "value": 2.07}, {"measurement": "pKa", "setting": "Asp52", "value": "3.68 and 3.6−3.76"}, {"measurement": "pKa", "setting": "Glu35", "value": 6.20}, {"measurement": "pKa", "setting": "Asp18", "value": 2.66}, {"measurement": "pKa", "setting": "Asp119", "value": 3.20}, {"measurement": "pKa", "setting": "Asp101", "value": 4.09}]}
